T1: human CD134 (full-length, on cells) (human, UniProt P43489 29-277)
T1 sequence: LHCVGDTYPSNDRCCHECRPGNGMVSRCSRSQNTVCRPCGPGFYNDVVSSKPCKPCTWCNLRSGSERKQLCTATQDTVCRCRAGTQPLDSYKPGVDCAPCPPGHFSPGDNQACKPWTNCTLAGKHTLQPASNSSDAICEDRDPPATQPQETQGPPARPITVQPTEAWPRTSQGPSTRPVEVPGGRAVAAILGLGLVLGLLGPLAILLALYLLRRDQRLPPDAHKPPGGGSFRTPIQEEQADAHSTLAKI


Key:
[1] = target: T1, human CD134 (full-length, on cells); assay: flow cytometry, PHA-stimulated human CD3+ T lymphocytes
[2] = target: T1, human CD134 (full-length, on cells); assay: cell-based or functional assay
[3] = target: T1, human CD134 (full-length, on cells); assay: flow cytometry, stable CD134 293-F clone no. 23
Protocol: (§1) Full-length human CD134 (SEQ ID NO. 1) was re-cloned in a pcDNA3.1-derived expression plasmid (see Example 11 (d) below). […] After extensive washing in PBS/BSA/NaN₃, cells were subsequently incubated with 1:200 diluted PE-conjugated goat anti-mouse IgG (Fcγ specific) antibodies (Jackson ImmunoResearch) or with 1:200 diluted PE-conjugated goat anti-human IgG (Fcγ specific) antibodies (Jackson ImmunoResearch) for 30 minutes at 4° C. After extensive washing in PBS/BSA/NaN₃, cells were fixed in 2% formaldehyde in PBS/BSA/NaN₃ for 30 minutes at 4° C. Binding of antibodies was measured using flow cytometry (FACSCalibur; BD Biosciences).

[4] = target: T1, human CD134 (full-length, on cells); assay: competition flow cytometry, stable CD134 293-F clone no. 5; competitor biotinylated mouse 12H3 at 700 ng/mL
Protocol: Full-length human CD134 (SEQ ID NO1) was re-cloned in a pcDNA3.1-derived expression plasmid (see Example 11 (c) above). […] After extensive washing in PBS/BSA/NaN₃, cells were fixed in 2% formaldehyde in PBS/BSA/NaN₃ for 30 minutes at 4° C.

[5] = target: T2, recombinant human CD134:human Fcγ (IgG1) fusion protein (human, UniProt P01857-1 100-330 = IgG part, limits assumed); assay: ELISA, plate-bound CD134:Fc 50 ng/well
T2 construct: domain: Fcγ (IgG1); Bought (R&D Systems); also called rhuCD134
T2 sequence (P01857 other isoform, or with tags, fused parts or gaps limits assumed): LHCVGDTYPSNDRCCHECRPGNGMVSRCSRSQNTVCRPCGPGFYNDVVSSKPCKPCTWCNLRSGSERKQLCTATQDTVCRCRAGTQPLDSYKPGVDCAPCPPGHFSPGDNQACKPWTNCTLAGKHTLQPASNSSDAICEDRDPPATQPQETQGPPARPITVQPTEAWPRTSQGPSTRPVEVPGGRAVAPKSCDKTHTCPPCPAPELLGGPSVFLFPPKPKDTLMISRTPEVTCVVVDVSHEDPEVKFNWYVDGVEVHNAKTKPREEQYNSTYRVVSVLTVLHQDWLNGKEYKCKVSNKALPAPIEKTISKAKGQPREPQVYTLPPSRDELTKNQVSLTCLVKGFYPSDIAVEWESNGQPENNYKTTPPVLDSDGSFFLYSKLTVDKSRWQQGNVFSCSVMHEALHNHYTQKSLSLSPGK
Protocol: Ninety six-wells flat-bottom ELISA plates (Corning) were coated with 50 ng/well recombinant human CD134:human Fcγ (IgG1) fusion protein (R&D Systems) in PBS o/n at 4° C. After extensive washing in PBS/0.05% Tween 20, plates were blocked in PBS/0.05% Tween 20/1% BSA fraction V (Roche) for 1 hour at RT. […] After extensive washing in PBS/0.05% Tween 20, binding of antibodies was determined with 1:5000 diluted horseradish peroxidase-conjugated goat anti-mouse (Fcγ specific) antibodies (Jackson ImmunoResearch) or with 1:4000 diluted horseradish peroxidase-conjugated goat anti-human κ-specific antibodies (Southern Biotech) for 1 hour at RT, followed by a ready-to-use solution of TMB substrate (Invitrogen) for colorimetric detection. After adding 1 M H₂SO₄, optical densities were measured at, a wavelength of 450 nm (reference wavelength of 655 nm) using a microplate reader (BioRad).

[6] = target: T1, human CD134 (full-length, on cells); assay: flow cytometry, stable CD134 293-F clone no. 5
Protocol: as §1

Row | Molecule | EC50 [3] [µg/mL] | IC50 [4] [µg/mL] | EC50 [5] [µg/mL] | binding result [6] | other results
1 | commercially available mouse anti-human CD134 antibody clone ACT35 |  |  |  |  | EC50 [1]: 2.5 µg/mL; saturating concentration [1]: 5 µg/mL
2 | humanized IgG4κ anti-human CD134 antibody clone 12H3 version 12H3_VL1VH2 (antibody, V domains shown, Stabilized human IgG4/κ; end of each range computed; also called 12H3_VL1H2; 2H3 VL1VH2 (SF2)) VH: QVQLVQSGAEVKKPGSSVKVSCKASGYTFKDYTMHWVRQAPGQGLEWIGGIYPNNGGSTYNQNFKDRVTLTADKSTSTAYMELSSLRSEDTAVYYCARMGYHGPHLDFDVWGQGTTVTVSS VL: DIQMTQSPSSLSASVGDRVTITCKASQDVGAAVAWYQQKPGKAPKLLIYWASTRHTGVPSRFSGSGSGTDFTLTISSLQPEDFATYYCQQYINYPLTFGGGTKVEIKR | < 0.2 | ~1.5 | ~0.05 |  | Replication Index, Treg/Teff ratio 0:1, donor 1 [2]: 13.9; Replication Index, Treg/Teff ratio 0:1, donor 2 [2]: 12.1; Replication Index, Treg/Teff ratio 0:1, donor 3 [2]: 10.2; Replication Index, Treg/Teff ratio 0:1, donor 4 [2]: 10.7; Replication Index, Treg/Teff ratio 0:1, donor 5 [2]: 8.66; Replication Index, Treg/Teff ratio 1:2, donor 1 [2]: 5.33; Replication Index, Treg/Teff ratio 1:2, donor 2 [2]: 5.82; Replication Index, Treg/Teff ratio 1:2, donor 3 [2]: 6; Replication Index, Treg/Teff ratio 1:2, donor 4 [2]: 6.05; Replication Index, Treg/Teff ratio 1:2, donor 5 [2]: 4.71; Replication Index, Treg/Teff ratio 1:4, donor 1 [2]: 5.23; Replication Index, Treg/Teff ratio 1:4, donor 2 [2]: 5.21; Replication Index, Treg/Teff ratio 1:4, donor 3 [2]: 5.23; Replication Index, Treg/Teff ratio 1:4, donor 4 [2]: 5.51; Replication Index, Treg/Teff ratio 1:4, donor 5 [2]: 4.81
3 | humanized IgG4κ anti-human CD134 antibody clone 12H3 version 12H3_VL2VH2 (antibody, V domains shown, Stabilized human IgG4/κ; end of each range computed; also called 12H3_VL2H2) VH: QVQLVQSGAEVKKPGSSVKVSCKASGYTFKDYTMHWVRQAPGQGLEWIGGIYPNNGGSTYNQNFKDRVTLTADKSTSTAYMELSSLRSEDTAVYYCARMGYHGPHLDFDVWGQGTTVTVSS VL: DIQMTQSPSSLSASVGDRVTITCKASQDVGAAVAWYQQKPGKAPKLLIYWASTRHTGVPDRFSGGGSGTDFTLTISSLQPEDFATYYCQQYINYPLTFGGGTKVEIKR | < 0.2 | ~1.5 | ~0.05 |  | 
4 | humanized IgG4κ anti-human CD134 antibody clone 12H3 version 12H3_VL2VH3 (antibody, V domains shown, Stabilized human IgG4/κ; end of each range computed) VH: QVQLVQSGAEVKKPGSSVKVSCKASGYTFKDYTMHWVRQAPGQGLEWIGGIYPNNGGSTYNQNFKDRATLTVDKSTSTAYMELSSLRSEDTAVYYCARMGYHGPHLDFDVWGQGTTVTVSS VL: DIQMTQSPSSLSASVGDRVTITCKASQDVGAAVAWYQQKPGKAPKLLIYWASTRHTGVPDRFSGGGSGTDFTLTISSLQPEDFATYYCQQYINYPLTFGGGTKVEIKR | < 0.2 | ~1.5 | ~0.05 |  | 
5 | humanized IgG4κ anti-human CD134 antibody clone 12H3 version 12H3_VL2VH1 (antibody, V domains shown, Stabilized human IgG4/κ; end of each range computed; also called 12H3_VL2H1) VH: QVQLVQSGAEVKKPGSSVKVSCKASGYTFKDYTMHWVRQAPGQGLEWMGGIYPNNGGSTYNQNFKDRVTITADKSTSTAYMELSSLRSEDTAVYYCARMGYHGPHLDFDVWGQGTTVTVSS VL: DIQMTQSPSSLSASVGDRVTITCKASQDVGAAVAWYQQKPGKAPKLLIYWASTRHTGVPDRFSGGGSGTDFTLTISSLQPEDFATYYCQQYINYPLTFGGGTKVEIKR | < 0.2 | ~1.5 | ~0.05 |  | 
6 | humanized IgG4κ anti-human CD134 antibody clone 12H3 version 12H3_VL1VH3 (antibody, V domains shown, Stabilized human IgG4/κ; end of each range computed; also called 12H3_VL1H3) VH: QVQLVQSGAEVKKPGSSVKVSCKASGYTFKDYTMHWVRQAPGQGLEWIGGIYPNNGGSTYNQNFKDRATLTVDKSTSTAYMELSSLRSEDTAVYYCARMGYHGPHLDFDVWGQGTTVTVSS VL: DIQMTQSPSSLSASVGDRVTITCKASQDVGAAVAWYQQKPGKAPKLLIYWASTRHTGVPSRFSGSGSGTDFTLTISSLQPEDFATYYCQQYINYPLTFGGGTKVEIKR | < 0.2 | ~1.5 | ~0.05 |  | 
7 | humanized IgG4κ anti-human CD134 antibody clone 12H3 version 12H3_VL1VH1 (antibody, V domains shown, Stabilized human IgG4 (Angal et al.)/κ; also called 12H3_VL1H1) VH: QVQLVQSGAEVKKPGSSVKVSCKASGYTFKDYTMHWVRQAPGQGLEWMGGIYPNNGGSTYNQNFKDRVTITADKSTSTAYMELSSLRSEDTAVYYCARMGYHGPHLDFDVWGQGTTVTVSS VL: DIQMTQSPSSLSASVGDRVTITCKASQDVGAAVAWYQQKPGKAPKLLIYWASTRHTGVPSRFSGSGSGTDFTLTISSLQPEDFATYYCQQYINYPLTFGGGTKVEIKR | < 0.2 | ~1.5 | ~0.05 |  | 
8 | humanized IgG4κ anti-human CD134 antibody clone 20E5 version 20E5_VL1VH2 (antibody, V domains shown, Stabilized human IgG4/κ; end of each range computed; also called 20E5_VL1H2; VL1H2) VH: QVQLVQSGAEVKKPGASVKVSCKASGYTFTSYVMHWVRQAPGQRLEWIGYINPYNDGTKYNEKFKGRATITSDTSASTAYMELSSLRSEDTAVYYCANYYGSSLSMDYWGQGTLVTVSS VL: DIQMTQSPSSLSASVGDRVTITCRASQDISNYLNWYQQKPGKAPKLLIYYTSRLHSGVPSRFSGSGSGTDYTLTISSLQPEDFATYYCQQGNTLPWTFGQGTKVEIKR |  |  | ~0.15 | binds | 
9 | humanized IgG4κ anti-human CD134 antibody clone 20E5 version 20E5_VL1VH3 (antibody, V domains shown, Stabilized human IgG4/κ; end of each range computed; also called 20E5_VL1H3; 2-E5_VL1VH3) VH: QVQLVQSGAEVKKPGASVKVSCKASGYTFTSYVMHWVRQAPGQRLEWIGYINPYNDGTKYNEKFKGRATLTSDKSASTAYMELSSLRSEDTAVYYCANYYGSSLSMDYWGQGTLVTVSS VL: DIQMTQSPSSLSASVGDRVTITCRASQDISNYLNWYQQKPGKAPKLLIYYTSRLHSGVPSRFSGSGSGTDYTLTISSLQPEDFATYYCQQGNTLPWTFGQGTKVEIKR |  |  | ~0.1 | binds | 
10 | humanized IgG4κ anti-human CD134 antibody clone 20E5 version 20E5_VL2VH3 (antibody, V domains shown, Stabilized human IgG4/κ; end of each range computed) VH: QVQLVQSGAEVKKPGASVKVSCKASGYTFTSYVMHWVRQAPGQRLEWIGYINPYNDGTKYNEKFKGRATLTSDKSASTAYMELSSLRSEDTAVYYCANYYGSSLSMDYWGQGTLVTVSS VL: DIQMTQSPSSLSASVGDRVTITCRASQDISNYLNWYQQKPGKAVKLLIYYTSRLHSGVPSRFSGSGSGTDYTLTISSLQPEDFATYFCQQGNTLPWTFGQGTKVEIKR |  |  | ~0.1 | binds | 
11 | humanized IgG4κ anti-human CD134 antibody clone 20E5 version 20E5_VL2VH2 (antibody, V domains shown, Stabilized human IgG4/κ; end of each range computed) VH: QVQLVQSGAEVKKPGASVKVSCKASGYTFTSYVMHWVRQAPGQRLEWIGYINPYNDGTKYNEKFKGRATITSDTSASTAYMELSSLRSEDTAVYYCANYYGSSLSMDYWGQGTLVTVSS VL: DIQMTQSPSSLSASVGDRVTITCRASQDISNYLNWYQQKPGKAVKLLIYYTSRLHSGVPSRFSGSGSGTDYTLTISSLQPEDFATYFCQQGNTLPWTFGQGTKVEIKR |  |  | ~0.1 | binds | 
12 | humanized IgG4κ anti-human CD134 antibody clone 20E5 version 20E5_VL2VH1 (antibody, V domains shown, Stabilized human IgG4/κ; end of each range computed; also called 20E5_VL2H1) VH: QVQLVQSGAEVKKPGASVKVSCKASGYTFTSYVMHWVRQAPGQRLEWMGYINPYNDGTKYNEKFKGRVTITSDTSASTAYMELSSLRSEDTAVYYCANYYGSSLSMDYWGQGTLVTVSS VL: DIQMTQSPSSLSASVGDRVTITCRASQDISNYLNWYQQKPGKAVKLLIYYTSRLHSGVPSRFSGSGSGTDYTLTISSLQPEDFATYFCQQGNTLPWTFGQGTKVEIKR |  |  | ~0.1 | binds | 
13 | mouse anti-human CD134 monoclonal antibody clone 20E5 (antibody, V domains shown, also called m20E5; parental mouse anti-human CD134 antibody clone 20E5) VH: EVQLQQSGPELVKPGASVKMSCKASGYTFTSYVMHWVKQKPGQGLEWIGYINPYNDGTKYNEKFKGKATLTSDKSSSTAYMELSSLTSEDSAVYYCANYYGSSLSMDYWGQGTSVTVSS VL: DIQMTQTTSSLSASLGDRVTISCRASQDISNYLNWYQQKPDGTVKLLIYYTSRLHSGVPSRFSGSGSGTDYSLTISNLEQEDIATYFCQQGNTLPWTFGGGTKLEIKR |  |  |  |  | EC50 [1]: ~2.5 µg/mL

Source: US20140377284A1 (BIOCEROX PRODUCTS B V, published 2014)
